Reference: patent publication US8124349B2, “Toll-like receptor assays” (University of Massachusetts, priority 2003, dated 2012)

T1: TLR9^YFP (Homo sapiens, UniProt Q9NR96)
T1 construct: expressed in transfected cells; host or cells: HEK cells stably expressing TLR9^YFP, used as cellular lysate
T1 sequence (Q9NR96 26-1032): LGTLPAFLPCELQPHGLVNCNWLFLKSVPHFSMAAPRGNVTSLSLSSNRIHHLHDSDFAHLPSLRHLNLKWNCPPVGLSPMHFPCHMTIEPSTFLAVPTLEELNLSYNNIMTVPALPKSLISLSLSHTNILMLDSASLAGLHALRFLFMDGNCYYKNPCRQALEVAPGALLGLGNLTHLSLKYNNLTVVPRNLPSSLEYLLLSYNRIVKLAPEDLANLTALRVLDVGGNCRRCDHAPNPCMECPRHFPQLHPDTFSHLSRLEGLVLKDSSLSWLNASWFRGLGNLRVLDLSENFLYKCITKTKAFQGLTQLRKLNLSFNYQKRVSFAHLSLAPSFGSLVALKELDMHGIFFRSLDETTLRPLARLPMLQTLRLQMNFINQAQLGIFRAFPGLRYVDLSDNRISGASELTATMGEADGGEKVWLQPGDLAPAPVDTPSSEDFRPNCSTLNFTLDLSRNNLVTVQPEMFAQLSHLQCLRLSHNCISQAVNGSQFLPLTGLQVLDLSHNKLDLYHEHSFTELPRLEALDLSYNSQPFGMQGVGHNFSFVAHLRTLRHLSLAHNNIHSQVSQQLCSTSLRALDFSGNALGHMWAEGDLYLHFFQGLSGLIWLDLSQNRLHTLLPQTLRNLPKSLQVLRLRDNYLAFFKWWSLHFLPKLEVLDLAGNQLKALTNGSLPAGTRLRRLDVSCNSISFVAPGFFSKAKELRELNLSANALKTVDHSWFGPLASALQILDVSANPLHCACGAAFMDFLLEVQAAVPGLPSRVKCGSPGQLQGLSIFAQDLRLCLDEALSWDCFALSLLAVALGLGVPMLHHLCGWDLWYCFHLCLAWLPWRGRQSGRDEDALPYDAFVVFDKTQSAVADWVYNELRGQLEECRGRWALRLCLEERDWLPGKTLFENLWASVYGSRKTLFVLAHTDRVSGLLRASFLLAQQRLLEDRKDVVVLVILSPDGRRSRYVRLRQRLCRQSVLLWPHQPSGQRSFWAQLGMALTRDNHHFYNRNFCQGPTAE

T2: TLR9 (Homo sapiens, UniProt Q9NR96)
T2 construct: expressed in transfected cells; host or cells: HEK293 cells stably expressing TLR^FP
T2 sequence (Q9NR96 26-1032): T1 sequence (Q9NR96 26-1032)

B1: PorinB: the protein PorinB from Neisseria meningitidis (protein)
chain: DVTLYGTIKAGVETSRSVFHQNGQVTEVTTATGIVDLGSKIGFKGQEDLGNGLKAIWQVEQKASIAGTDSGWGNRQSFIGLKGGFGKLRVGRLNSVLKDTGDINPWDSKSDYLGVNKIAEPEARLISVRYDSPEFAGLSGSVQYALNDNAGRHNSESYHAGFNYKNGGFFVQYGGAYKRHHQVQEGLNIEKYQIHRLVSGYDNDALYASVAVQQQDAKLTDASNSHNSQTEVAATLAYRFGNVTPRVSYAHGFKGLVDDADIGNEYDQVVVGAEYDFSKRTSALVSAGWLQEGKGENKFVATAGGVGLRHKF

Columns and labels:
TLR2:Fc = target: T3, TLR2:Fc (Homo sapiens, UniProt O60603); assay: Cell-free ELISA: plated TLR2:Fc probed with biotinylated ligand; type: binding; details: FIG. 8B
T3 construct: a fusion protein consisting of the extracellular domain of TLR2 and the mouse Fc portion of immunoglobulin G, isotype 2a
T3 sequence (O60603 21-588 limits assumed, species assumed): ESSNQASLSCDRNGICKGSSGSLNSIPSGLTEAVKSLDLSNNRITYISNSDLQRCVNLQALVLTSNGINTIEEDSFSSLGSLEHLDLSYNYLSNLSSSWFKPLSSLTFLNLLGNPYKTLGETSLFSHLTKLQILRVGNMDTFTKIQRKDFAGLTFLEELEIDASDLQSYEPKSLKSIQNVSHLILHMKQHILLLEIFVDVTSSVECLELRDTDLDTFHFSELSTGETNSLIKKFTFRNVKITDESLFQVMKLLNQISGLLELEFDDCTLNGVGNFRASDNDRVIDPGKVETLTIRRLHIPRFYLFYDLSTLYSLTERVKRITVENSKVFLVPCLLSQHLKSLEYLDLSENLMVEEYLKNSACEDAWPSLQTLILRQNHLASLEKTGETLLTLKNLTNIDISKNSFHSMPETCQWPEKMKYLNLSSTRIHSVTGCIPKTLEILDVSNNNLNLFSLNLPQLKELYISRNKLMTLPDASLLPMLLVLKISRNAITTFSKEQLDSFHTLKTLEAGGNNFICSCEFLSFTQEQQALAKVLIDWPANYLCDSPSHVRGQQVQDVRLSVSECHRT
Description: (§1) Briefly, various TLR2 ligands were plated on plastic in carbonate buffer pH 9 for two hours at different concentrations (X axis) in duplicate points. After washing (PBS-0.05% Tween 20), a fusion protein consisting of the extracellular domain of TLR2 and the mouse Fc portion of immunoglobulin G, isotype 2a (TLR2:Fc, see U.S. Provisional Patent Application Ser. No. 60/598,774), was added at 1 mg/ml (0.1 mg/well).
(§2) In a similar setting, the TLR2:Fc fusion protein and the related TLR4:Fc, were plated on plastic and the biotinylated ligand used to probe the wells. The TLR2 bound biotinylated protein was reveled using a HRP conjugated anti biotin polyclonal antiserum (NEB).

TLR4:Fc = target: T4, TLR4:Fc (Homo sapiens, UniProt O00206); assay: Cell-free ELISA: plated TLR4:Fc probed with biotinylated ligand; type: binding; details: FIG. 8B
T4 construct: the TLR2:Fc fusion protein and the related TLR4:Fc, were plated on plastic
T4 sequence (O00206 24-631 limits assumed, species assumed): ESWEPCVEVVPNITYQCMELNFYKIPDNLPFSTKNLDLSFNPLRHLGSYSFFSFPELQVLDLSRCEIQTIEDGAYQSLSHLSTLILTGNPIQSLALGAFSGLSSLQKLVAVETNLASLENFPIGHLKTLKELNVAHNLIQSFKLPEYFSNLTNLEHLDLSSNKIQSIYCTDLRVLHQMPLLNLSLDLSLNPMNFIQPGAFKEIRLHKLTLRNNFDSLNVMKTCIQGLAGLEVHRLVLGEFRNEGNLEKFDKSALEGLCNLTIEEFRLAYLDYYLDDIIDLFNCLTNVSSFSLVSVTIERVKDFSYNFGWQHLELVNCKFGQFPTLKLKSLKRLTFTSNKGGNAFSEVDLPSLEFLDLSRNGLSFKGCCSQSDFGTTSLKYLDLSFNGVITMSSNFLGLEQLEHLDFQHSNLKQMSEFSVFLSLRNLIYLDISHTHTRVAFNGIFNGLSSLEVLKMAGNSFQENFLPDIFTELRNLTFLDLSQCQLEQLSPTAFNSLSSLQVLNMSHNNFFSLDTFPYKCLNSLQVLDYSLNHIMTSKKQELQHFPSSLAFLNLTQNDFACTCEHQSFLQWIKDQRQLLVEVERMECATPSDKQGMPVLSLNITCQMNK
Description: as §1, §2

TLR9^YFP = target: T1, TLR9^YFP; assay: Competition plate assay: TLR9^YFP binding to plate-bound biotinylated CpG-DNA 2006 in presence of competitor; details: plates coated with 0.3 μM biotin-CpG-DNA 2006; competitor added to TLR9^YFP lysate; FIGS. 5A-D
Description: This assay can be adapted for use in drug-screening applications. For example, the interaction of TLR9 with CpG-DNA reflects a clinically important receptor/ligand interaction since a variety of autoimmune diseases are thought to be based on the interaction of DNA-antibody complexes with this receptor (Leadbetter et al., 2002, Nature 416:603-607). Thus, antagonists for this interaction are useful for the development of novel anti-inflammatory drugs. To examine the application of this assay to the identification of such compounds (e.g., compounds that increase or decrease the interaction) and so are potential drugs for ameliorating TLR-related disorders, a competition assay was developed that was based on the basic plate assay described above. The competition assay was performed essentially as described above for the plate assay. In addition, non-biotinylated CpG-DNA (“cold ligand”) or other compounds that interfere with TLR9 signaling (R848 or bacterial DNA) were added to the TLR9-containing lysates. The ability of the various compounds to inhibit binding of TLR9^YFP to the plate-bound biotinylated CpG-DNA was then evaluated.
In the assay, NeutrAvidin™ plates (Pierce) were coated with 0.3 μM biotin-CpG-DNA 2006 as described above. […]

TLR9 = target: T2, TLR9; assay: TLR9 signaling in TLR9-expressing HEK cells; type: cell-based
Description: Cellular activation was assessed by NF-κB-luciferase reporter assay. Briefly, HEK293 cells that stably express a TLR^FP or empty vector (pcDNA) were seeded into 96-well tissue culture plates at a density of 2×10^4 cells/well. The following day, cells were transiently transfected with luciferase reporter genes using Genejuice (Novagen) per the manufacturer's recommendations. In order to assess NF-κB activation, an NF-κB-luciferase reporter gene consisting of an artificial promoter composed of a multimer of five NF-κB sites driving the firefly luciferase gene, was co-transfected with a constitutively active Renilla-luciferase reporter gene (Promega, Madison, Wis.).

TLR2 = target: T5, TLR2 (Homo sapiens, UniProt O60603); assay: NF-κB luciferase reporter assay in 293 cells stably expressing TLR2; type: cell-based; details: 0.01-10 μg/ml stimulant; FIG. 7B
T5 construct: expressed in transfected cells; host or cells: 293 (HEK 293) cells stably expressing TLR2
T5 sequence (O60603 21-784, species assumed): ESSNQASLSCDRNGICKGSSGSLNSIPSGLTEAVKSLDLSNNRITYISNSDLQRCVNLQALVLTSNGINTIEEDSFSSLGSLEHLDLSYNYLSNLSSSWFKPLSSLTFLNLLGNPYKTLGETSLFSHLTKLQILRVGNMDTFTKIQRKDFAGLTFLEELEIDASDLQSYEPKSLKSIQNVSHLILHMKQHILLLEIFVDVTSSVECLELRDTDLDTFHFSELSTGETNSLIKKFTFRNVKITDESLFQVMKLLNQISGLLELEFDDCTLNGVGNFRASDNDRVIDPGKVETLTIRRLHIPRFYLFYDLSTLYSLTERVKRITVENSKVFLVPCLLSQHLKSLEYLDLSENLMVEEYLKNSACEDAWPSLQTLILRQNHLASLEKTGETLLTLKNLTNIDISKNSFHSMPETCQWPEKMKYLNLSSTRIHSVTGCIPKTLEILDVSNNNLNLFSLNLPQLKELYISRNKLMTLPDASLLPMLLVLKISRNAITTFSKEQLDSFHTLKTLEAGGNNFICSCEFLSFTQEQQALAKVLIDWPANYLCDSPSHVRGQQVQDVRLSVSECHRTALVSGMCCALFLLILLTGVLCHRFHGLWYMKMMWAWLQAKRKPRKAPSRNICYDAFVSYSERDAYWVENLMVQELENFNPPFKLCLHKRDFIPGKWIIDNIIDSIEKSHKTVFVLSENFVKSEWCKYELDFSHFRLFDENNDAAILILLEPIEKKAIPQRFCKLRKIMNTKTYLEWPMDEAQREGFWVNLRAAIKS
T5 sequence (Q15399 25-786 partner, species assumed): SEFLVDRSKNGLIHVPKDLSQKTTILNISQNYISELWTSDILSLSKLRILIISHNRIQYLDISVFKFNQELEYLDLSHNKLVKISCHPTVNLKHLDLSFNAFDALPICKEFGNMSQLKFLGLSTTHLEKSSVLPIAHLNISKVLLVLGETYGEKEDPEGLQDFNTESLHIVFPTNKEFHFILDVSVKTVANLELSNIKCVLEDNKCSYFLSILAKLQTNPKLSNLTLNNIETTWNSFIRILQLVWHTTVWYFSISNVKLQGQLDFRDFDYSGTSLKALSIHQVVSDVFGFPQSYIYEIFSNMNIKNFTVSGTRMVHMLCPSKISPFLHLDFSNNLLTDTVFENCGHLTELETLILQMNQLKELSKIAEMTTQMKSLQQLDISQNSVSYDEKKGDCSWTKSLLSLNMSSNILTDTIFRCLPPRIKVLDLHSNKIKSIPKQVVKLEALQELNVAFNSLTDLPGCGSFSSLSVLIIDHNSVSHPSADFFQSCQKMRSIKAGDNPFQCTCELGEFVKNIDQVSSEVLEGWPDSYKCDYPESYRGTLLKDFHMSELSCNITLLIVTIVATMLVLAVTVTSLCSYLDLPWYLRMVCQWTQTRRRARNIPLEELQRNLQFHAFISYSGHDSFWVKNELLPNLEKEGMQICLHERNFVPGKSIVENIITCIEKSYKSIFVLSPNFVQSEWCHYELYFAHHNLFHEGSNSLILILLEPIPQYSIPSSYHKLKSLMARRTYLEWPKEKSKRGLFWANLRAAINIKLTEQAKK
Description: 293 cells stably expressing TLR4/MD-2 (as described in Visintin et al., 2003, J. Biol. Chem., 278(48):48313-48320) or TLR2 were stimulated using lipopolysaccharide (LPS) or PorinB, and the extent of activation measured as the activation of a NF-κB-dependent reporter gene encoding for the Luciferase gene. To measure NF-κB activation, 2 μg of a reporter plasmid in which NF-κB drives the synthesis of luciferase was transiently cotransfected with 5 μg of the indicated cDNA by lipofection (GeneJuice) in 10-cm tissue culture dishes following the manufacturer's recommendations. The following morning, cells were seeded at a density of 50,000 cells/well in a 96-well plate, allowed to recover for 5 hours, and stimulated as indicated between 6 and 18 hours. Luciferase activity was measured with a plate reader luminometer (Victor^2, PerkinElmer Life Sciences) using chemicals provided with the luciferase assay system (Promega, Madison, Wis.). All data are presented as the means ±S.D. of triplicate well readings, normalized to a value of 1.0 in comparison with an unstimulated negative control.

| Molecule | Binding of biotinylated ligand to plated TLR2:Fc (TLR2:Fc) | Binding of biotinylated ligand to plated TLR4:Fc (TLR4:Fc) | Inhibition of TLR9 binding to biotinylated immobilized CpG-DNA (TLR9^YFP) | Inhibition of TLR9 signaling (TLR9) | NF-κB reporter activation in TLR2 expressing cells (TLR2) |
| --- | --- | --- | --- | --- | --- |
| bacterial alkaline phosphatase (BAP): bacterial alkaline phosphatase | bind to TLR2:Fc | not to TLR4:Fc |  |  |  |
| CCOCc1nc2c(N)nc3ccccc3c2n1CC(C)(C)O [R848] |  |  | did not interfere with the binding of TLR9 to CpG-DNA | inhibited TLR9 signaling in a dose dependent manner |  |
| B1 | specifically bound | did not |  |  | efficiently activates |
